Experimental data as given in patent publication US20230235068A1 (published 2023).

B1: H4H17322P2 (antibody, human IgG4, V domains shown)
VH: QLQLQESGPGLVKPSETLSLTCTVSGASISSSRFYGGWIRQPPGKGLEWIGDIYYSGNTYYNPSLQSRVTISVDTSKNQFSLKLSSVTAADTAVYYCARHLMITFGGLIVEGFDIWGQGTMVTVSS
VL: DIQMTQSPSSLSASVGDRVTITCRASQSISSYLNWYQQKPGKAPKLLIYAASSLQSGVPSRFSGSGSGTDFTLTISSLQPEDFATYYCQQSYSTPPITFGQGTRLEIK
notes: Fully human variable regions; H4H prefix = human IgG4 Fc
B2: H4H18462P2 (antibody, human IgG4, V domains shown)
VH: EVQLVESGGDLVQPGRSLRLSCAASGFTFSSFAMSWVRQAPGRGLEWVSSLSDSGDNTYYADSVKGRFTISRDNSKNTLYLQMNNLRAEDTAVYYCAKDLFSGWLFHGFDVWGQGTMVTVSS
VL: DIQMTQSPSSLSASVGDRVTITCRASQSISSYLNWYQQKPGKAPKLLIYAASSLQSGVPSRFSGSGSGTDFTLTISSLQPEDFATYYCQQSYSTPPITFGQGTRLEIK
notes: as for B1

Columns and labels:
[1] = target: T1, recombinant rat LEPR extracellular domain expressed with a C-terminal myc-myc-hexahistidine tag (rat, UniProt Q62959 22-839); test: SPR, captured mAb, 25 C
T1 construct: Monomeric construct; also called rLEPR.MMH; rLEPR-MMH
T1 sequence (Q62959 other isoform, or with tags, fused parts or gaps): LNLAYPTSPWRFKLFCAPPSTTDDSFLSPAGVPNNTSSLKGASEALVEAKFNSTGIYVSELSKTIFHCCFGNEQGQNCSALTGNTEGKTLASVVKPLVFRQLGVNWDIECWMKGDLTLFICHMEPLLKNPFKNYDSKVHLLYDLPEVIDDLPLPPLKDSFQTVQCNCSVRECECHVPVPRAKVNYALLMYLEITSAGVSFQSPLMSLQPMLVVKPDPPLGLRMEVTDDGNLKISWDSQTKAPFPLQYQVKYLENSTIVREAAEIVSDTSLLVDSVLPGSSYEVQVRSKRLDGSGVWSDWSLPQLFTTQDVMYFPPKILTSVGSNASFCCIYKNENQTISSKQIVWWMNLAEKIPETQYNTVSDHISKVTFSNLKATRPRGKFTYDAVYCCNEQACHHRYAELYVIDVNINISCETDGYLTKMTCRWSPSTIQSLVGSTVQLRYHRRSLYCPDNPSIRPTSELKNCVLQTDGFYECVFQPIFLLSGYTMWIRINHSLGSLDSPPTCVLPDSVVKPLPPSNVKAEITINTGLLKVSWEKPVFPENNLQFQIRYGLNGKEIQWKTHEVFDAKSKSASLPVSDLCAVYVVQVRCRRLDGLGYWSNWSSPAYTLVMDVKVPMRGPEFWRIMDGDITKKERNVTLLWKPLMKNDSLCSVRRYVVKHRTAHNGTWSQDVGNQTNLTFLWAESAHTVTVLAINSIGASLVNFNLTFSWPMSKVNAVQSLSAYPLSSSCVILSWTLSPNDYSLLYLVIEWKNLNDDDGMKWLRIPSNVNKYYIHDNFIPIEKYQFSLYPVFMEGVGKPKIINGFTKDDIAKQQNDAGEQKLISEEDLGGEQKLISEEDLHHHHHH
Protocol: (§1) Equilibrium dissociation constants (KD values) for antigen binding to purified anti-LEPR monoclonal antibodies of the invention were determined using a real-time surface plasmon resonance biosensor using a Biacore 4000 instrument. All binding studies were performed in running buffer containing 10 mM HEPES, 150 mM NaCl, 3 mM EDTA, and 0.05% v/v Surfactant Tween-20, pH 7.4 (HBS-ET running buffer) at 25° C. and 37° C. The Biacore sensor surface was first derivatized by amine coupling with a monoclonal mouse anti-human Fc antibody (GE, #BR-1008-39) to the capture anti-LEPR monoclonal antibodies. […] The dissociation of monoclonal antibody bound LEPR reagent was monitored for 10 minutes in HBS-ET running buffer. Kinetic association (kₐ) and dissociation (kd) rate constants were determined by fitting the real-time binding sensorgrams to a 1:1 binding model with mass transport limitation using Scrubber 2.0c curve-fitting software. Binding dissociation equilibrium constants (KD) and dissociative half-lives (t½) were calculated from the kinetic rate constants as: […]

[2] = target: T2, recombinant mouse LEPR extracellular domain expressed with a C-terminal myc-myc-hexahistidine tag (mouse, UniProt P48356 22-839); test: SPR, captured mAb, 37 C
T2 construct: Monomeric construct; also called mLEPR.MMH; mLEPR-MMH
T2 sequence (P48356 other isoform, or with tags, fused parts or gaps): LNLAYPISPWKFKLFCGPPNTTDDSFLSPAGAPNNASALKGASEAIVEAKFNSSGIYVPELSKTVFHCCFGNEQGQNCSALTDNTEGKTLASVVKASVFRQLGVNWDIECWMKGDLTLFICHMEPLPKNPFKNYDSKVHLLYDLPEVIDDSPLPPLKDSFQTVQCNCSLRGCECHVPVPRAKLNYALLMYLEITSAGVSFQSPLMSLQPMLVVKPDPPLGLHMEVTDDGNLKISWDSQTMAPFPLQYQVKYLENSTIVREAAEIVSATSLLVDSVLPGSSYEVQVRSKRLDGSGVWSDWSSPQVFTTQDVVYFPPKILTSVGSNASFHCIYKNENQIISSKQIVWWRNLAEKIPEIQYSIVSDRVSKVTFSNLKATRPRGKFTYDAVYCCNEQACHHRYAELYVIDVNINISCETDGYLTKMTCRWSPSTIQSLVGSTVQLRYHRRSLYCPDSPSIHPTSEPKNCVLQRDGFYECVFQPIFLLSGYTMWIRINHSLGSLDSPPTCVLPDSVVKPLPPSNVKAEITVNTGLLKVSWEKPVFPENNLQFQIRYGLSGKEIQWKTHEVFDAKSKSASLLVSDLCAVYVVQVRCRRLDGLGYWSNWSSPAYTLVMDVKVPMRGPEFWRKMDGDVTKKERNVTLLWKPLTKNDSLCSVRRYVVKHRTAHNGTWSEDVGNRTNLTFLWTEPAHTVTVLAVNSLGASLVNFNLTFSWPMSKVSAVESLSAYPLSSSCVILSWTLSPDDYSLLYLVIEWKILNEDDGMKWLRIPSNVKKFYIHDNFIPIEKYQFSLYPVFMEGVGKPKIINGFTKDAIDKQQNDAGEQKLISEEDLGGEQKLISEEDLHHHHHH
Protocol: as §1

| Binder | 100 nM rLEPR-MMH Bound (RU) [1] | 100 nM mLEPR-MMH Bound (RU) [2] |
| --- | --- | --- |
| B1 | 10 RU |  |
| B2 |  | 3 RU |
